Test results reported in paper PMC9963377.

Molecular target: tetrameric CDV attachment protein H-ectodomain (strain A75/17), with N-terminal tetrameric GCN4 motif (canine distemper virus (strain A75/17))
Assay: cryo-EM structure

## tetrameric CDV attachment protein H-ectodomain (strain A75/17), with N-terminal tetrameric GCN4 motif (domain or fragment)
  stoichiometry N: 4
